Assay results taken from patent US7189694B2, “Inhibitors of autophosphorylation protein kinases” (University of Florida Research Foundation, Inc., priority 2003, dated 2007).
Ends that are not written are not given here.

What was measured:
[1] = molecular target: T1, JAK2 WT peptide (JAK2 autophosphorylation site 1001LPQDKEYYKVKEP) (Homo sapiens, UniProt O60674); assay: ELISA binding of biotinylated JAK2 WT peptide to solid-phase peptides; details: FIG. 1A; ELISA, peptides coated on 96-well plates
T1 construct: made in house; host or cells: chemical synthesis (Fmoc)
Method: Binding assays: For ELISA binding assays Tkip and other peptides to be tested were bound to 96-well plates in 0.1 M carbonate binding buffer (pH 9.6) at a final concentration of 3 μg/well (50 μl). Wells were then washed three times with wash buffer containing 0.9% NaCl and 0.05% tween-20 in PBS and blocked with 2% gelatin and 0.05% tween-20 in PBS for 1 h at room temperature. Wells were then washed three times with wash buffer and incubated with various concentrations of biotinylated JAK2 WT peptide and biotinylated P-JAK2 WT peptide for 1 h at room temperature in blocking buffer. Following incubation, wells were washed five times with wash buffer to remove any unbound biotinylated peptides. Bound biotinylated peptides were detected by incubation with a 1:500 dilution of NEUTRAVIDIN biotin binding-protein conjugated with horseradish peroxidase (Molecular Probes, Eugene, Oreg.) in blocking buffer for 1 h at room temperature. Wells were then washed five times with wash buffer and developed with a solution of o-phenylenediamine (OPD) in stable peroxidase buffer (Pierce, Rockford, Ill.). The assay was stopped with the addition of 2 M H2SO4 (50 μl) to each well. Absorbance was measured using a 450 microplate reader (Bio-rad, Hercules, Calif.) at 490 nm. Control experiments were carried out as described above in the absence of immobilized peptides.

recombinant human JAK2 = molecular target: T2, recombinant human JAK2 (Homo sapiens, UniProt O60674); assay: In vitro JAK2 kinase assay (32P, SDS-PAGE, autoradiography); assay type: biochemical; details: peptide at 50 μM
T2 construct: purchased Upstate Biotechnology, Lake Placid, N.Y
T2 sequence (O60674 whole entry): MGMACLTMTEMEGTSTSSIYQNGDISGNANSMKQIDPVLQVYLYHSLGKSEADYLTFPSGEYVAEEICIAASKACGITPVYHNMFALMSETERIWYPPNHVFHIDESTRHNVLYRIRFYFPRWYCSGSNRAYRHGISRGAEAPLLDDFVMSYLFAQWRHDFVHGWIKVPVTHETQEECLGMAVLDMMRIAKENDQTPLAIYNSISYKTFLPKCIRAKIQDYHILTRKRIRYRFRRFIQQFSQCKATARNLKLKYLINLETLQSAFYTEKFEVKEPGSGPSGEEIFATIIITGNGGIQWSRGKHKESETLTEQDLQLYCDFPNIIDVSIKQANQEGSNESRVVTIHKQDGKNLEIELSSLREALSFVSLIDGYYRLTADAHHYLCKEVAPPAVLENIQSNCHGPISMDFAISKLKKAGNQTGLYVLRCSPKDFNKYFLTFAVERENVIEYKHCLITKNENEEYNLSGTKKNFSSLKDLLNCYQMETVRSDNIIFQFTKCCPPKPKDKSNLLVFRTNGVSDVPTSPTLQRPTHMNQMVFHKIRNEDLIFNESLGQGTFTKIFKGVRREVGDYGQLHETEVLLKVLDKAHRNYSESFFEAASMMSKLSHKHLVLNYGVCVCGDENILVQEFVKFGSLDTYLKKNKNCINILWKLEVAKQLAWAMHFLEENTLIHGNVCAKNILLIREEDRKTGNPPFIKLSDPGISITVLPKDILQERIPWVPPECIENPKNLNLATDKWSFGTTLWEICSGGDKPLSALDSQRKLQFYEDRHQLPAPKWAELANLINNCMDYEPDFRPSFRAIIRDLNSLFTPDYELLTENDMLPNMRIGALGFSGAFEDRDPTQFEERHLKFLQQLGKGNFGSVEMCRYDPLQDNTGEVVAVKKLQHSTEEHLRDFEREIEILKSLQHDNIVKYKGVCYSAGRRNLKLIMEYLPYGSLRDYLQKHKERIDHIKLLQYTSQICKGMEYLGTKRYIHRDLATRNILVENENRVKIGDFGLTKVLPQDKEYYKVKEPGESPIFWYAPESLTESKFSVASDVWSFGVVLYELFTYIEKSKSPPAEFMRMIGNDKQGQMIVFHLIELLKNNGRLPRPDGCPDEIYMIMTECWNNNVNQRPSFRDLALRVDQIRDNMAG
Method: Determination of JAK2 autophosphorylation activity was performed in reaction mixtures containing recombinant human JAK2 immobilized on agarose beads (Upstate Biotechnology, Lake Placid, N.Y.), 1 μCi/μl of [^32P]γ-ATP (Amersham Biosciences, Piscataway, N.J.), and either Tkip or JAK 2 WT peptide incubated in kinase buffer (10 mM HEPES [pH 7.4], 50 mM sodium chloride, 0.1 mM sodium orthovanadate, 5 mM magnesium chloride, 5 mM manganese chloride). JAK2 kinase assays were performed in 35 μL reaction volumes containing 10.5 μL Tkip, 20 μL JAK2 agarose beads, 1 μL sIFNGR-1, and 3.5 μL [^32P]γ-ATP incubated at 30° C. for 30 min with intermittent agitation. […] EGFR, VEGFR, and JAK2 kinase reactions were terminated with the addition of 5 μl 6×SDS sample buffer (0.5 M Tris-HCl [pH 6.8], 36% glycerol, 10% SDS, 9.3% DTT, 0.012% bromophenol blue). Incubation of JAK2 agarose beads in SDS sample buffer (100° C.) was designed to elute bound proteins from the agarose beads. The reaction mixtures were separated on a 10% SDS polyacrilamide gel. Autoradiography was used to determine phosphorylation activity.

[2] = tested on: biotinylated JAK2 WT peptide binding to Tkip peptide; assay: ELISA peptide competition for biotinylated JAK2 WT binding to Tkip; set-up: species or system human; details: FIG. 1B; unlabeled competitor peptide
Method: Peptide competition experiments were conducted using peptides derived from the JAK tyrosine kinase family, vascular endothelial growth factor receptor (VEGFR), and cyclin dependent kinase (CDK) to compete with biotinylated JAK2 WT peptide for binding to Tkip. Binding of biotinylated JAK2 WT was determined as above, except that following Tkip peptide immobilization, washing, and blocking in blocking buffer for 1 hr at room temperature unlabeled competitors were added to wells and incubated for 30 min at varying concentrations before biotinylated JAK2 WT peptide was incubated for 1 hr in each well to determine the extent of competition with unlabeled peptides. Detection and analysis of binding was carried out as described above.

[3] = tested on: MHC class I expression on WISH cells; assay: Flow cytometry of IFN-γ induced MHC class I expression on WISH cells; assay type: cell-based, human
Method: Flow Cytometry: WISH fibroblast cells (2×10^6) were incubated for 48 h with media alone, 25 μM MuIFNγ(95–125) peptide, or lipophilic Tkip (LT) at varying concentrations (1 μM, 10 μM, 25 μM) in the presence or absence of 5000 units/ml IFN-γ in 6-well culture plates at 37° C. in a 5% CO2 atmosphere. Following incubation, cells were washed twice with PBS and harvested by trypsinization into two sets of 5-ml round bottom polystyrene tubes (Fisher, Pittsburgh, Pa.) and washed twice with PBS. For cell surface staining a direct immunofluorescence protocol was employed. […] The fluorescent-conjugated isotype antibody was used to determine background fluorescence by identifying nonspecific binding of the monoclonal antibody to WISH cells. […] WISH fibroblast cells were finally resuspended in 500 μl of PBS and analyzed on a FACScan fluorescence-activated cell sorter (Becton Dickinson, San Jose, Calif.). […] The red fluorescence of R-PE was excited at 488 nm. […] The fluorescence intensity of the negative controls were subtracted from the mean fluorescence for the R-PE labeled cells. […] Flow cytometry data were analyzed using CellQuest analysis software (Becton Dickinson, San Jose, Calif.).

Row | Substance | binding of biotinylated JAK2 WT peptide to solid-phase peptide [1] | inhibition of biotinylated JAK2 WT peptide binding to Tkip peptide [2] | also measured
1 | AKFEVNNPQVQRQAFNELIRVVHQLLPESSL (amino acid sequence of a peptide used for control purposes) [IFN-γ95–125] | negligible | – | –
2 | EMLVLLMALKLLA (amino acid sequence of a peptide that can be used according to the present invention) | – | – | inhibition of JAK2 autophosphorylation (recombinant human JAK2): inhibited autophosphorylation of JAK2 (lane 7 of FIG. 4, upper panel), although it was not as effective as the Tkip peptide
3 | KTEGVPSTAIREISLLKELNH (amino acid sequence of a peptide used for control purposes) [CDK 41–61, cyclin-dependent kinase, cyclin box peptide 41–61] | negligible | neither CDK 41–61 nor VEGFR 1208–1222, inhibited | –
4 | LPQDKEYYKVKEP (amino acid sequence of a peptide used for control purposes) [JAK2 WT, JAK2 autophosphorylation site peptide, residues 1001-1013; control peptide, reference compound] | – | inhibited | inhibition of JAK2 autophosphorylation (recombinant human JAK2): had no effect; inhibition of JAK2 phosphorylation of IFNGR-1 (recombinant human JAK2): had no effect
5 | NGVLFLMIFHFLG (amino acid sequence of a peptide that can be used according to the present invention) | – | – | inhibition of JAK2 phosphorylation of IFNGR-1 (recombinant human JAK2): did inhibit
6 | SSDVRYVNAFKFM (amino acid sequence of a peptide used for control purposes) [VEGFR 1208–1222, vascular endothelial growth factor receptor autophosphorylation peptide] | negligible | neither CDK 41–61 nor VEGFR 1208–1222, inhibited | –
7 | control lipophilic peptide (IFN-γ 95–125): lipophilic irrelevant peptide MuIFN-γ(95–125) (AKFEVNNPQVQRQAFNELIRVVHQLLPESSL; also: lipophilic group, site not given here; UniProt P01580 117-147, looked up, fragment) [reference compound] | – | – | effect on IFN-γ upregulation of MHC class I expression ([3]; 10 μM or 25 μM Tkip (control 25 μM), 5000 U/ml human IFN-γ, 48 h): had no effect
8 | human IFN-γ: human gamma interferon cytokine used as stimulus | – | – | increase in MHC class I as per FACS analysis ([3]; 5000 U/ml): over 3 fold
